The text below walks through data of paper PMC5639329.

A short description of data set [1]: AUC.
Data set [2] is described as follows: AUC. The source holds these as a separate data set.

Like-named read-outs stand apart in the source and are kept apart here.

With “GFP-HttQ28 (huntingtin exon 1 fragment with 28 glutamines fused to GFP, expressed in C. elegans)”, in “AUC [1]”, the % aggregates (20-1000 S area) was found to be 70% and the % monomer (1-20 S area) came out at 30%.

In the data set “AUC [1]”, “GFP-HttQ74 (huntingtin exon 1 fragment with 74 glutamines fused to GFP, expressed in C. elegans)” returned a % aggregates (20-1000 S area) of 97% and a % monomer (1-20 S area) of 3%.

“HttQ25-eGFP (huntingtin exon 1 fragment with 25 glutamines fused to eGFP, expressed in D. melanogaster)”: in “AUC [2]”, the % aggregates (20-1000 S area) worked out at 65% and the % monomer (1-20 S area) was 35%. In “AUC [1]”, this substance gave a % aggregates (20-1000 S area) of 66%; a % aggregates (20-1000 S area), Hsp70 co-expressed of 62%; a % aggregates (20-1000 S area), average of all runs of 64.7%; a % monomer (1-20 S area) of 34%. In “AUC [1]”, this substance came in with a % monomer (1-20 S area), Hsp70 co-expressed of 38% and a % monomer (1-20 S area), average of all runs of 35.3%.

In the data set “AUC [2]”, “HttQ46-eGFP (huntingtin exon 1 fragment with 46 glutamines fused to eGFP, expressed in D. melanogaster)” registered a % aggregates (20-1000 S area) of 79% and a % monomer (1-20 S area) of 21%. Further, in “AUC [1]”, the % aggregates (20-1000 S area) was found to be 76%; the % aggregates (20-1000 S area), Hsp70 co-expressed stood at 78%; the % aggregates (20-1000 S area), average of all runs came to 83.2%; the % monomer (1-20 S area) was found to be 24%. In “AUC [1]”, this substance displayed a % monomer (1-20 S area), Hsp70 co-expressed of 22% and a % monomer (1-20 S area), average of all runs of 16.8%.

In “AUC [2]”, “HttQ72-eGFP (huntingtin exon 1 fragment with 72 glutamines fused to eGFP, expressed in D. melanogaster)” displayed a % aggregates (20-1000 S area) of 90% and a % monomer (1-20 S area) of 10%. In addition, in the data set “AUC [1]”, the % aggregates (20-1000 S area) was 93%; the % aggregates (20-1000 S area), average of all runs was determined as 93.3%; the % monomer (1-20 S area) is 7%; the % monomer (1-20 S area), average of all runs was 6.7%.

As to “HttQ97-eGFP (huntingtin exon 1 fragment with 97 glutamines fused to eGFP, expressed in D. melanogaster)”, in the data set “AUC [2]”, the % aggregates (20-1000 S area) is 86% and the % monomer (1-20 S area) is 14%. In “AUC [1]”, this substance came in with a % aggregates (20-1000 S area) of 82%; a % aggregates (20-1000 S area), Hsp70 co-expressed of 91%; a % aggregates (20-1000 S area), average of all runs of 85.6%; a % monomer (1-20 S area) of 18%. In the data set “AUC [1]”, this substance had a % monomer (1-20 S area), Hsp70 co-expressed of 9% and a % monomer (1-20 S area), average of all runs of 14.7%.
